One molecule from article PMC2797197 can be followed below.

The data set deals with GST-NSD2-SET (Homo sapiens, UniProt O96028 941-1240). The experiment in a line: EMSA.
GST-NSD2-SET, sequence (O96028 941-1240): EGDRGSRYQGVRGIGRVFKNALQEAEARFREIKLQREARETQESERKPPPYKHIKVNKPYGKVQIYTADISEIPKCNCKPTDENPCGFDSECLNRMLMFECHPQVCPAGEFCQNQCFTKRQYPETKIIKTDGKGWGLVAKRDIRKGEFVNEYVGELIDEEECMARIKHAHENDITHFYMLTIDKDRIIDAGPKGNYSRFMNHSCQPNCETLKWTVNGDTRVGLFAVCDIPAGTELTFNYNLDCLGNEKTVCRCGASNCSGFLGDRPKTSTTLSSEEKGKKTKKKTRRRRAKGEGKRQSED

B1: 41-bp dsDNA (dsDNA)
DNA 1: CTCTCTTTGAGGACACCAACCTGGCGGCCATCCACGCCAAG
DNA 2: CTTGGCGTGGATGGCCGCCAGGTTGGTGTCCTCAAAGAGAG
Regarding B1, the binding result is “binds”.
